The conditions of test [1]: Chen Z et al., 1997; cited from earlier work.
A further test relates to basophils. Briefly: Basophil Activation Test. Type of test: cell-based, human. Particulars: non-latex allergic control subject N2. The procedure:
FIG. 9 is a graphical representation of the basophil Activation Test on a latex allergic donor. Whole blood from a latex allergic, Hev b 6 sensitized subject was incubated with latex allergens. The cells were stained with FITC labelled anti-human IgE polyclonal antibodies and a PE labelled monoclonal anti-human CD63 antibody. Cells were analysed by flow cytometry defining basophils on the basis of scatter (A) and high IgE staining (B). The percentage of activated basophils expressing CD63 was determined (C).
The Basophil Activation Test was performed on whole blood from (A) non-latex allergic subject N2; (B) latex-allergic subject A7; (C) latex-allergic subject A8 and (D) latex-allergic subject A10. Antigens: latex glove extract (GE), hevein peptide (hevein), rHev b 6, mutant rHev b 6 (MU rHev b 6), sulphonated rHev b 6, (sul. rHev b 6), rHev b 5, KLH and house dust mite extract (HDM). All allergens were used at 10 μg/ml except for rHev b 6 and mutant rHev b 6 which were used at 0.1, 1 and 10 μg/ml. The cut-off for positive was set at the level of activated basophils after incubation in stimulation buffer alone (no antigen, horizontal line). A plus symbol (+) indicates antigen to which a subject has either a positive clinical history of allergy and/or a positive reading on an allergen-specific IgE ELISA.
A basophil activation assay based on flow cytometry was used to quantify the activation of basophils after incubation with various allergens. This assay was modified from Paris-Kohler A, Demoly P, Persi L, Lebel B, Bousquet J, Arnoux B. In vitro diagnosis of cypress pollen allergy by using cytofluorimetric analysis of basophils (Basotest). J Allergy Clin Immunol 2000; 105:339-45. Whole blood was collected in 6 ml heparinised vacutainers (Greiner). 100 μl aliquots were preincubated with stimulation buffer (20 mM Hepes, 133 mM NaCl, 5 mM KCl, 7 mM CaCl2, 3.5 mM MgCl2, 1 mg/ml BSA, 20 μl/ml heparin, pH 7.4) containing 2 ng/ml IL-3, for 10 min at 37° C., to increase the sensitivity of the assay. Samples were incubated for 20 min at 37° C. with 100 μl of stimulation buffer alone or stimulation buffer containing either rabbit anti-human IgE (Dako) at 1 in 500 dilution, 2 μM N-fMLP (Sigma, Mo, USA), crude allergen extracts, recombinant latex allergens or Keyhole Limpet Haemocyanin (KLH) (Sigma, Mo, USA). Basophil activation was stopped by incubating at 4° C. for 5 min. Normal goat serum (10 μl) was added to each tube to block non-specific binding of the detection antibody (goat anti-human IgE-FITC) and incubated for 10 min at 4° C. Samples were incubated with goat anti-human IgE-FITC (Caltag, Birmingham, Calif.) at a dilution of 1 in 2.5, and mouse anti-human CD63-R-Phycoerythrin (PE; Caltag, Birmingham, Calif.) at a dilution of 1 in 20, in a 20 μl volume of wash buffer (20 mM HEPES, 133 mM NaCl, 5 mM KCl, 0.27 mM EDTA, pH7.3). RBC were lysed by the addition of 2 ml FACS lysing solution (39 mM NH4Cl, 2.5 mM KHCO3, 0.2 mM EDTA) and incubation for 10 min at room temperature. Cells were centrifuged (250 g, 5 min at 4° C.), resuspended in 3 ml wash buffer, and centrifuged as before. Pellets were resuspended in 200 μl wash buffer, and analysed by flow cytometry (FACScalibur, Becton Dickinson) within 2 h of the experiment. 7AAD (Sigma, Mo, USA) was added to the samples 5 min prior to FACS analysis.

For test [2], the target named is serum IgE of latex-allergic subject A8. Briefly: inhibition ELISA of IgE binding to plate-coated rHev b 6, inhibitor at 125 µg/ml (FIG. 8D). In general terms: In an ELISA, binding on a coated surface is turned into a signal by an enzyme label.
Test [3] concerns the target IgE from the sera of latex allergic, Hev b 6 sensitised subjects. Put plainly: inhibition ELISA of IgE binding to plate-coated rHev b 6, estimated.
For test [4], the target named is serum IgE of a latex-allergic, Hev b 5 positive subject. Put plainly: non-specific inhibition ELISA: serum preincubated with inhibitor, IgE binding to rHev b 5 read (data not shown).
Test [5] deals with serum IgE of latex-allergic subject A6. Briefly: inhibition ELISA of IgE binding to plate-coated rHev b 6, soluble inhibitor 0.0016-125 µg/ml (FIG. 8C).
For test [6], the target named is serum IgE of latex-allergic subject A7. Briefly: inhibition ELISA of IgE binding to plate-coated rHev b 6, soluble inhibitor 0.0016-125 µg/ml (FIG. 8B).
In test [7] the target is IgE from the sera of latex allergic, Hev b 6 sensitised subjects. Put plainly: inhibition ELISA of IgE binding to plate-coated rHev b 6, ratio of the 30% inhibition concentrations.

Data on five molecules can be found in patent publication US20060233785A1, “Immunointeractive molecules and uses thereof” (priority 2001, published 2006).

Where a chain is given by its changes, count along the chain named.

Turning to “Hevein: 4.7 kDa hydrophilic protein which forms the N-terminus of pro-hevein (EQCGRQAGGKLCPNNLCCSQWGWCGSTDEYCSPDHNCQSNCKD)”, the “patients with latex allergy reacting on skin testing” value in test [1] is given as 81%.

“hevein peptide: 43-mer hevein peptide synthesised according to the prohevein amino acid sequence by Mimotopes (EQCGRQAGGKLCPNNLCCSQWGWCGSTDEYCSPDHNCQSNCKD)”: the basophil activation entry in the test on basophils was “negligible”.

B1: rHev b 5: recombinant latex allergen Hev b 5 (protein)
chain: ASVEVESAATALPKNETPEVTKAEETKTEEPAAPPASEQETADATPEKEEPTAAPAEPEAPAPETEKAEEVEKIEKTEEPAPEADQTTPEEKPAEPEPVAEEEPKHETKETETEAPAAPAEGEKPAEEEKPITEAAETATTEVPVEKTEE
B1: the basophil activation entry with basophils was “negligible”.

B2: Recombinant Hev b 6 (rHev b 6) (protein, not shown: small tags and cut ends)
chain: EQCGRQAGGKLCPNNLCCSQWGWCGSTDEYCSPDHNCQSNCKDSGEGVGGGSASNVLATYHLYNSQDHGWDLNAASAYCSTWDANKPYSWRSKYGWTAFCGPVGAHGQSSCGKCLSVTNTGTGAKTTVRIVDQCSNGGLDLDVNVFRQLDTDGKGYERGHITVNYQFVDCGDSFNPLFSVMKSSVIN
As to B2, the percent inhibition in test [2], in test [5] and in test [6] was 100% each time. Moreover, the inhibitor concentration giving 30% inhibition of IgE binding in test [3] was 0.01 µg/mL. In test [4], this molecule displayed a percent inhibition (non-specific control) of under 20%.

B3: mutant rHev b 6 (cysteine to alanine substitution at amino acid 3) (protein, not shown: small tags and cut ends)
chain: B2 chain with C3A
Regarding B3, the maximum percent inhibition in test [2] came to 32%. Also, the inhibitor concentration giving 30% inhibition of IgE binding in test [3] is 125 µg/mL. The molecule further had a percent inhibition (non-specific control) in test [4] of under 20%. Further, the fold more inhibitor required than rHev b 6 in test [7] was found to be 12500 fold.
